The record followed here is patent publication US20180072786A1.

Ends that are not written are not given here.

Chain of mixture of biotinylated D-enantiomeric Aβ1-42 oligomers and fibrils (P05067 672-713 limits assumed, form in doubt): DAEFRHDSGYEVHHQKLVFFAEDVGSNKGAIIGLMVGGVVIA

The assay addresses mixture of biotinylated D-enantiomeric Aβ1-42 oligomers and fibrils (UniProt P05067). Nature of the assay: monoclonal phage ELISA, A450; signal on immobilized oligomers/fibrils (normalized by the 6E10 control) against signal on monomers set to 100%.
As for DWSSRVYRDPQT (peptide, not shown: large carriers, not fully specified) [individual phage clone 6.139 (Mosd16)], the Difference in signal strength between Aβ1-42 monomers (100%) and Aβ1-42 oligomers and fibrils was determined as 52.4%.

With FSHSHHTWFTWN (peptide, not shown: large carriers, not fully specified) [individual phage clone 6.247 (Mosd7)], the Difference in signal strength between Aβ1-42 monomers (100%) and Aβ1-42 oligomers and fibrils was found to be 58%.

As for HTWTTYDYVWRL (peptide, not shown: large carriers, not fully specified) [individual phage clone 5.80 (Mosd2)], the Difference in signal strength between Aβ1-42 monomers (100%) and Aβ1-42 oligomers and fibrils was 67.1%.

For the molecule LSMNITTVHRWH (peptide, not shown: large carriers, not fully specified) [individual phage clone 6.245 (Mosd11)], the Difference in signal strength between Aβ1-42 monomers (100%) and Aβ1-42 oligomers and fibrils worked out at 57.7%.

For the molecule YSFHFEMNMGNY (peptide, not shown: large carriers, not fully specified) [individual phage clone 6.113 (Mosd13)], the Difference in signal strength between Aβ1-42 monomers (100%) and Aβ1-42 oligomers and fibrils was 57.2%.

With ERSQWGHRDPQS (peptide, not shown: large carriers, not fully specified) [individual phage clone 6.240 (Mosd17)], the Difference in signal strength between Aβ1-42 monomers (100%) and Aβ1-42 oligomers and fibrils amounted to 54.5%.

For the molecule HFWSWTSLSMTR (peptide, not shown: large carriers, not fully specified) [individual phage clone 6.227 (Mosd8)], the Difference in signal strength between Aβ1-42 monomers (100%) and Aβ1-42 oligomers and fibrils came out at 68.6%.

Regarding EHWDFGQWWQQS (peptide, not shown: large carriers, not fully specified) [individual phage clone 6.197 (Mosd14)], the Difference in signal strength between Aβ1-42 monomers (100%) and Aβ1-42 oligomers and fibrils came out at 56.5%.

Take VHWDFRQWWQQS (peptide, not shown: large carriers, not fully specified) [individual phage clone 6.141 (Mosd12)]: the Difference in signal strength between Aβ1-42 monomers (100%) and Aβ1-42 oligomers and fibrils came to 59%.

As to HNWSWEWWYNPN (peptide, not shown: large carriers, not fully specified) [individual phage clone 6.216 (Mosd5)], the Difference in signal strength between Aβ1-42 monomers (100%) and Aβ1-42 oligomers and fibrils came out at 62.7%.

Consider DLRFSSLWKLSH (peptide, not shown: large carriers, not fully specified) [individual phage clone 6.190 (Mosd19)], for which the Difference in signal strength between Aβ1-42 monomers (100%) and Aβ1-42 oligomers and fibrils was found to be 50.3%.

On to HNWFYWTTEPYD (peptide, not shown: large carriers, not fully specified) [individual phage clone 5.81 (Mosd4)], for which the Difference in signal strength between Aβ1-42 monomers (100%) and Aβ1-42 oligomers and fibrils was 69.2%.

Consider DRSKGDHRITQM (peptide, not shown: large carriers, not fully specified) [individual phage clone 6.257 (Mosd18)], for which the Difference in signal strength between Aβ1-42 monomers (100%) and Aβ1-42 oligomers and fibrils is 49.2%.

For GTMLKFSGMNLT (peptide, not shown: large carriers, not fully specified) [individual phage clone 5.57 (Mosd3)], the Difference in signal strength between Aβ1-42 monomers (100%) and Aβ1-42 oligomers and fibrils stood at 60%.

Take YSYLTSYHMVWR (peptide, not shown: large carriers, not fully specified) [individual phage clone 5.60, which contains the peptide sequence of Mosd1]: the Difference in signal strength between Aβ1-42 monomers (100%) and Aβ1-42 oligomers and fibrils came out at 72%.

Regarding STLHFYTAFLNK (peptide, not shown: large carriers, not fully specified) [individual phage clone 6.249 (Mosd6)], the Difference in signal strength between Aβ1-42 monomers (100%) and Aβ1-42 oligomers and fibrils came to 68%.

Take HTWTHWFSWNVP (peptide, not shown: large carriers, not fully specified) [individual phage clone 6.242 (Mosd10)]: the Difference in signal strength between Aβ1-42 monomers (100%) and Aβ1-42 oligomers and fibrils was 71.9%.

Turning to FSWSMVMPWPTA (peptide, not shown: large carriers, not fully specified) [individual phage clone 6.135 (Mosd21)], the Difference in signal strength between Aβ1-42 monomers (100%) and Aβ1-42 oligomers and fibrils was found to be 46%.

Take HLSWYWEKYLTS (peptide, not shown: large carriers, not fully specified) [individual phage clone 6.239 (Mosd9)]: the Difference in signal strength between Aβ1-42 monomers (100%) and Aβ1-42 oligomers and fibrils amounted to 68%.

For VHWDFRQWWQPS (peptide, not shown: large carriers, not fully specified) [individual phage clone 6.167 (Mosd20)], the Difference in signal strength between Aβ1-42 monomers (100%) and Aβ1-42 oligomers and fibrils was determined as 45.7%.

As to GQWDFRQWWQPC (peptide, not shown: large carriers, not fully specified) [individual phage clone 6.255 (Mosd15)], the Difference in signal strength between Aβ1-42 monomers (100%) and Aβ1-42 oligomers and fibrils turned out to be 60%.
